Experimental data: patent publication US20210283212A1 (RA PHARMACEUTICALS, published 2021)
Starred links: 1 amine or outer side, 2 acyl side, 3 side chain; linkers in the order of their positions; H or OH if unused. Positions of bridges follow the written chain, without caps; N, C: chain ends. Non-standard residues stand in square brackets, D forms with d. Primed or numbered codes have the meaning given here. No end group written: not given here. *: point of attachment. mXylyl(3) = bridging moiety between the two residues given in brackets; m‑xylyl = bridging moiety between the two residues given in brackets; Tyr(OMe) = O-methyl tyrosine, COc1ccc(C[C@H](N[*:1])C(=O)[*:2])cc1; Phe(3-CH2NH2) = O=C([C@H](Cc1cccc(CN[*:3])c1)N[*:1])[*:2]; mXylyl″ = bridging moiety between the two marked residues; Trp(7-aza) = N[C@@H](Cc1c[nH]c2ncccc12)C(=O)O; NMePhe(4-F) = CN[C@@H](Cc1ccc(F)cc1)C(=O)O; PEG2000 = polyethylene glycol, 2000 Da; Phe(4-F) = N[C@@H](Cc1ccc(F)cc1)C(=O)O; 2Nal = N[C@@H](Cc1ccc2ccccc2c1)C(=O)O; Palmitoyl = CCCCCCCCCCCCCCCC(=O)*; hPhe = N[C@@H](CCc1ccccc1)C(=O)O; NMeD = CN[C@@H](CC(=O)O)C(=O)O; Phg(2-OMe)′ = not defined here; dChg = N[C@@H](C(=O)O)C1CCCCC1; Chg = N[C@H](C(=O)O)C1CCCCC1; Phg = N[C@H](C(=O)O)c1ccccc1; Tle = CC(C)(C)[C@H](N)C(=O)O; NMeS = CN[C@@H](CO)C(=O)O; Ac5c = NC1(C(=O)O)CCCC1; Nva = CCC[C@H](N)C(=O)O; Thp = NC1(C(=O)O)CCOCC1; Aib = CC(C)(N)C(=O)O

B1: R3077 (peptide)
peptide: Ac-[Nva][Nva]YEN[Tle]Y[Trp(7-aza)]EYP[Chg][Nva]K
modifications: not fully specified (residue 14, C-terminus); printed as Ac-Nvl-Nvl-Y-E-N-Tbg-Y-azaTrp-E-Y-P-Chg-Nvl-K-(PEG2000) NH2; also: PEG2000 at C-terminal Lys (K-(PEG2000) NH2), attachment unclear
B2: R3072 (peptide)
peptide: Ac-[Nva][Nva]YEN[Tle]Y[Trp(7-aza)]EYP[Chg][Nva]K-NH2
SMILES: CCC[C@H](NC(C)=O)C(=O)N[C@@H](CCC)C(=O)N[C@@H](Cc1ccc(O)cc1)C(=O)N[C@@H](CCC(=O)O)C(=O)N[C@@H](CC(N)=O)C(=O)N[C@H](C(=O)N[C@@H](Cc1ccc(O)cc1)C(=O)N[C@@H](Cc1c[nH]c2ncccc12)C(=O)N[C@@H](CCC(=O)O)C(=O)N[C@@H](Cc1ccc(O)cc1)C(=O)N1CCC[C@H]1C(=O)N[C@H](C(=O)N[C@@H](CCC)C(=O)N[C@@H](CCCCN)C(N)=O)C1CCCCC1)C(C)(C)C
B3: R3192 (peptide)
peptide: Ac-KVERFD[NMeD][Tle]Y[Trp(7-aza)]EYP[Chg]K-NH2
modifications: lactam 1-6
SMILES: CC(=O)N[C@H]1CCCCNC(=O)C[C@@H](C(=O)N(C)[C@@H](CC(=O)O)C(=O)N[C@H](C(=O)N[C@@H](Cc2ccc(O)cc2)C(=O)N[C@@H](Cc2c[nH]c3ncccc23)C(=O)N[C@@H](CCC(=O)O)C(=O)N[C@@H](Cc2ccc(O)cc2)C(=O)N2CCC[C@H]2C(=O)N[C@H](C(=O)N[C@@H](CCCCN)C(N)=O)C2CCCCC2)C(C)(C)C)NC(=O)[C@H](Cc2ccccc2)NC(=O)[C@H](CCCNC(=N)N)NC(=O)[C@H](CCC(=O)O)NC(=O)[C@H](C(C)C)NC1=O
B4: R3194 (peptide)
peptide: Ac-KVERFD[NMeD][Tle]Y[Trp(7-aza)]EYP[Chg]K(Palmitoyl)-NH2
modifications: lactam 1-6
SMILES: CCCCCCCCCCCCCCCC(=O)NCCCC[C@H](NC(=O)[C@@H](NC(=O)[C@@H]1CCCN1C(=O)[C@H](Cc1ccc(O)cc1)NC(=O)[C@H](CCC(=O)O)NC(=O)[C@H](Cc1c[nH]c2ncccc12)NC(=O)[C@H](Cc1ccc(O)cc1)NC(=O)[C@@H](NC(=O)[C@H](CC(=O)O)N(C)C(=O)[C@@H]1CC(=O)NCCCC[C@H](NC(C)=O)C(=O)N[C@@H](C(C)C)C(=O)N[C@@H](CCC(=O)O)C(=O)N[C@@H](CCCNC(=N)N)C(=O)N[C@@H](Cc2ccccc2)C(=O)N1)C(C)(C)C)C1CCCCC1)C(N)=O

Each binder was assayed against T1, human C5 protein (human, UniProt P01031 19-673; P01031 678-1676) (assay: cell-based or functional assay).

Ac-[Nva]C[Phg]T[Trp(7-aza)]EY[NMeS]C[Nva]-NH2 (linker 2-9 via mXylyl(3)) [R3080] and Ac-[Nva]C[dChg]T[Trp(7-aza)]EY[NMeS]AC[Nva]-NH2 (linker 2-10 via mXylyl(3)) [R3093] cannot be ordered by “Avg. IC50, human hemolysis assay” value: > 50000 nM for the first, > 100000 nM for the second.

First: Ac-[Nva]C[Phg]T[Trp(7-aza)]E[Tyr(OMe)][NMeS]HC[Nva]-NH2 (linker 2-10 via mXylyl(3)) [R3074]
Second: Ac-[Chg]C[Phg]T[Trp(7-aza)]EY[NMeS]AC[Nva]-NH2 (linker 2-10 via mXylyl(3)) [R3089]
The “Avg. IC50, human hemolysis assay” value of the first is lower: 308 nM for the first, > 15000 nM for the second.

Going from Ac-[Nva]C[Phg][Aib][Trp(7-aza)]EY[NMeS]HC[Nva]-NH2 (linker 2-10 via mXylyl(3)) [R3096] to B1, the “Avg. IC50, human hemolysis assay” value falls from > 50000 nM to 81.7 nM.

Ac-[Nva]C[Phg]T[Trp(7-aza)]E[hPhe][NMeS]AC[Nva]-NH2 (linker 2-10 via mXylyl(3)) [R3095] and [Nva]CY[NMeS][Phg][NMePhe(4-F)][NMeS]H[NMePhe(4-F)]GC-NH2 (linker 2-11 via mXylyl(3)) [R3075] cannot be ordered by “Avg. IC50, human hemolysis assay” value: > 50000 nM for the first, > 75000 nM for the second.

Going from Ac-VC[Phg]T[Trp(7-aza)]EY[NMeS]AC[Nva]-NH2 (linker 2-10 via mXylyl(3)) [R3083] to Ac-[Nva]C[Phg]T[Trp(7-aza)]E[Phe(4-F)][NMeS]HC[Nva]-NH2 (linker 2-10 via mXylyl(3)) [R3073], the “Avg. IC50, human hemolysis assay” value falls from > 25000 nM to 403 nM.

Ac-[Nva]C[Phg]T[Trp(7-aza)]QY[NMeS]AC[Nva]-NH2 (linker 2-10 via mXylyl(3)) [R3098] and Ac-[Nva]C[Phg]T[Trp(7-aza)]NY[NMeS]AC[Nva]-NH2 (linker 2-10 via mXylyl(3)) [R3099] cannot be ordered by “Avg. IC50, human hemolysis assay” value: > 100000 nM for the first, > 100000 nM for the second.

First: Ac-[Nva]C[Phg]T[Trp(7-aza)]EF[NMeS]AC[Nva]-NH2 (linker 2-10 via mXylyl(3)) [R3100]
Second: Ac-[Nva]CKE[Phg]YC[NMeS][Tle]K[Trp(7-aza)]EY-NH2 (linker 2-7 via mXylyl″) [R3007]
The “Avg. IC50, human hemolysis assay” value of the first is 2-fold higher: 626 nM for the first, 314 nM for the second.

Ac-[Nva]C[Phg]T[Trp(7-aza)]DY[NMeS]AC[Nva]-NH2 (linker 2-10 via mXylyl(3)) [R3097] and Ac-[Nva]C[Phg]T[Trp(7-aza)]EYSAC[Nva]-NH2 (linker 2-10 via mXylyl(3)) [R3084] cannot be ordered by “Avg. IC50, human hemolysis assay” value: > 100000 nM for the first, > 100000 nM for the second.

Compared with PEG2000-[Nva][Nva]YEN[Tle]Y[Trp(7-aza)]EYP[Phg][Nva]-NH2 [R3078], B2 is 21-fold lower in “Avg. IC50, human hemolysis assay” value: 568 nM for the first, 26.9 nM for the second.

Ac-[Nva]C[Phg(2-OMe)′]T[Trp(7-aza)]EY[NMeS]HC[Nva]-NH2 (linker 2-10 via mXylyl(3)) [R3087] and Ac-[Nva]CFT[Trp(7-aza)]EY[NMeS]AC[Nva]-NH2 (linker 2-10 via mXylyl(3)) [R3090] cannot be ordered by “Avg. IC50, human hemolysis assay” value: > 25000 nM for the first, > 100000 nM for the second.

First: Ac-[Nva]SYEC[Tle]Y[Trp(7-aza)]EYP[Chg]C[Nva]-NH2 (linker 5-13 via mXylyl(3)) [R3086]
Second: VVYENGYWEYPGVK (Ac-Nvl-Nvl-Y-E-N-Tbg-Y-azaTrp-E-Y-P-Chg-Nvl-K-(BODIPY-TMR-X) NH2) [R3076]
The “Avg. IC50, human hemolysis assay” value of the first is higher: > 50000 nM for the first, 297 nM for the second.

Target: T1, human C5 protein
Test: cell-based or functional assay
Remark: another data set of the same source

Compared with Ac-KVERFD[NMeD][Tle]YWEYP[Chg]K (lactam 1-6) [R3196], B3 is 2-fold lower in “Avg. IC50, hemolysis assay with C5 depleted sera” value (from here on “Avg. IC50, hemolysis assay”): 3 nM for the first, 1.5 nM for the second.

B4 and Ac-CVERFC[Ac5c][Tle]Y[Trp(7-aza)]EYP[Chg][Nva] (linker 1-6 via m‑xylyl) [R3185] are within 1.5-fold of each other in “Avg. IC50, hemolysis assay” value: 15.5 nM for the first, 12.5 nM for the second.

First: Ac-CVERFCD[Tle]Y[Phe(3-CH2NH2)]EYP[Chg][Nva] (linker 1-6 via m‑xylyl) [R3181]
Second: Ac-KVERFD[NMeD][Tle]YWEYP[Chg]K(Palmitoyl) (lactam 1-6) [R3195]
The “Avg. IC50, hemolysis assay” value of the first is 24-fold higher: 1500 nM for the first, 62.5 nM for the second.

Compared with VERFCD[Tle]Y[Trp(7-aza)]EYP[Chg][Nva] (thioether 1-5) [R3184], Ac-CVERFCD[Tle]Y[Trp(7-aza)]E[2Nal]P[Chg][Nva] (linker 1-6 via m‑xylyl) [R3180] is 7.2-fold higher in “Avg. IC50, hemolysis assay” value: 4 nM for the first, 29 nM for the second.

Going from Ac-CAERFCD[Tle]Y[Trp(7-aza)]EYP[Phg]K(Palmitoyl) (linker 1-6 via m‑xylyl) [R3189] to Ac-CVERFC[Thp][Tle]Y[Trp(7-aza)]EYP[Chg][Nva] (linker 1-6 via mXylyl(3)) [R3186], the “Avg. IC50, hemolysis assay” value falls from 81.5 nM to 18 nM (4.5-fold).

Going from Ac-CVERFCD[Tle]Y[Trp(7-aza)]E[(m-Cl-homo)Phe]P[Chg][Nva] (linker 1-6 via m‑xylyl) [R3179] to Ac-CVERFCD[Tle]Y[Trp(7-aza)]EWP[Chg][Nva] (linker 1-6 via m‑xylyl) [R3177], the “Avg. IC50, hemolysis assay” value falls from 83 nM to 12 nM (6.9-fold).
